Our source for the stoichiometry N and Ki values is publication PMC7374751.

What is called stoichiometry N is a count of units in the complex or per binding partner.

In test [1] the target is full length MMP-1 (human). Kind of test: enzyme activity of pre-formed complexes against synthetic substrates; 10 nM [35S]TIMP-3 incubated with an equimolar concentration of metalloproteinase for 1 h at 37 °C; complex formation and stability over 24 h checked by activity.
The target of test [2] is ADAMTS-5 (of the inhibition assays) (UniProt Q9UNA0). Description: enzyme inhibition kinetics (fluorogenic peptide substrates); apparent Ki; enzyme pre-incubated with TIMP-3 (0.5-100 nM) 1 h at 37 °C, equilibrium rate of substrate hydrolysis; TNC buffer (50 mM Tris-HCl pH 7.5, 150 mM NaCl, 10 mM CaCl2, 0.05% Brij-35, 0.02% NaN3), 37 °C; tight-binding equation.

Sequence of full length MMP-1 (human) (P03956 100-469): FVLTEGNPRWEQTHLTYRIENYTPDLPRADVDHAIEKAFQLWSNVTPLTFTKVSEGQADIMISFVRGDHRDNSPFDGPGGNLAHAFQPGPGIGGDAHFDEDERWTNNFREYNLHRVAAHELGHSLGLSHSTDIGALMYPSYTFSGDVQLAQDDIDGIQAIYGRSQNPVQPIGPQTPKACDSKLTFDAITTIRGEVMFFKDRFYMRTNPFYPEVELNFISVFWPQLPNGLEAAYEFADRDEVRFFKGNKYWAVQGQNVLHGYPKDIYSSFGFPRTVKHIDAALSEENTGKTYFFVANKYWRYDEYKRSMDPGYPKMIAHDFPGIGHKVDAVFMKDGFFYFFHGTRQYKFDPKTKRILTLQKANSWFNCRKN

B1: FLAG-tagged TIMP-3 (natural protein)
chain: CTCSPSHPQDAFCNSDIVIRAKVVGKKLVKEGPFGTLVYTIKQMKMYRGFTKMPHVQYIHTEASESLCGLKLEVNKYQYLLTGRVYDGKMYTGLCNFVERWDQLTLSQRKGLNYRYHLGCNCKIKSCYYLPCFVTSKNECLWTDMLSNFGYPGYQSKHYACIRQKGGYCSWYRGWAPPDKSIINATDP
Molecule B1 displayed a stoichiometry N in test [1] of 1. Further, in test [2], the Ki was 1.91 nM.
